In PMC2897852 (PLoS ONE, 2010):
Positions count from the first letter of the chain named. Names may count otherwise.

B1: tag-free FtsZ (M. tuberculosis FtsZ, polyhistidine tag cleaved with thrombin) (natural protein)
chain: MTPPHNYLAVIKVVGIGGGGVNAVNRMIEQGLKGVEFIAINTDAQALLMSDADVKLDVGRDSTRGLGAGADPEVGRKAAEDAKDEIEELLRGADMVFVTAGEGGGTGTGGAPVVASIARKLGALTVGVVTRPFSFEGKRRSNQAENGIAALRESCDTLIVIPNDRLLQMGDAAVSLMDAFRSADEVLLNGVQGITDLITTPGLINVDFADVKGIMSGAGTALMGIGSARGEGRSLKAAEIAINSPLLEASMEGAQGVLMSIAGGSDLGLFEINEAASLVQDAAHPDANIIFGTVIDDSLGDEVRVTVIAAGFDVSGPGRKPVMGETGGAHRIESAKAGKLTSTLFEPVDAVSVPLHTNGATLSIGGDDDDVDVPPFMRR
notes: also called FtsZTB
B2: FtsZ D210G, tag-free (pRR7) (natural protein)
chain: B1 chain with D210G
B3: FtsZ G103S, tag-free (pRR3) (natural protein)
chain: B1 chain with G103S

The binders below were run against T1, His-ClpX (M. tuberculosis ClpX, pRD21) (M. tuberculosis, UniProt P9WPB9 1-426) (assay: pull-down). Conditions: both partners purified.
T1 construct: also called his-clpXTB; recombinant His-ClpX fusion protein
T1 sequence (P9WPB9 whole entry, the tested form may be a part): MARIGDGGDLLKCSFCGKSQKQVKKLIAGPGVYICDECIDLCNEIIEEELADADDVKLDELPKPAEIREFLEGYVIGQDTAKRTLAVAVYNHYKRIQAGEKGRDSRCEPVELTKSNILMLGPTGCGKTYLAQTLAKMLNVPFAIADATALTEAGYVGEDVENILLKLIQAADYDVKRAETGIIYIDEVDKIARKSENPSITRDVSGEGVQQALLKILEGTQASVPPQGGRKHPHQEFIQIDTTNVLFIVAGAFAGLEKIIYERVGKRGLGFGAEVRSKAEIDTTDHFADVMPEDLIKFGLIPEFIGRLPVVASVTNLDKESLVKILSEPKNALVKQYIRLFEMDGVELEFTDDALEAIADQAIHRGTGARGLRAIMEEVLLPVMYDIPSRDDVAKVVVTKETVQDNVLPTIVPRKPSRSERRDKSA

Does B1 bind?
Result: binds

Does B2 bind?
Result: binds

Does B3 bind?
Result: binds
